Columns and labels:
[1] = target: T1, purified human FAP antigen (human, UniProt Q12884 26-760, limits assumed); experiment: ELISA, plate coated with purified human FAP antigen (FIG. 56A-56C)
Description: (§1) Binding kinetics of the novel antigen binding constructs to a purified human FAP antigen was assessed using ELISA. For this assay, a 96 well ELISA plate was coated with the human-FAP antigen diluted to a concentration of 2 mg/mL in coating buffer (0.05M sodium carbonate-bicarbonate buffer, pH 9.6). 100 μl of this coating solution was added to each well in the plate and incubate at 4° C. overnight. The plate was washed 3 times with 300 μl per well of washing buffer (PBS with 0.05% Tween-20). After the last wash, the plate was blocked by adding to each well 200 μl of blocking buffer (PBS with 1% BSA) warmed to room temperature. The plate was then incubated at room temperature for 1 hour under gentle agitation. After blocking, the plate was washed 3 times with 300 μl per well of washing buffer. Dilution samples for each minibody were created by making 2.5× dilutions from a starting sample at 100 ng/mL, or 250 ng/mL, or 1000 ng/mL or 3000 ng/mL in 100 μL sample buffer (PBS with 1% BSA). The dilution samples were transferred to the assay plate and incubated at room temperature for 1 hour under gentle agitation. The plate was then washed 3 times with 300 μl per well of washing buffer.
(§2) Detection was performed by adding 100 μl of HRP labeled detection secondary antibody at an appropriate dilution and incubating the plate at room temperature for 1 hour under gentle agitation. The plate was then washed 3 times with 300 μl per well of washing buffer. For color development, 100 μl of TMB substrate regent, pre-warmed to room temperature, was added to the plate and incubated in the dark at room temperature for 15 min. The reaction was then stopped by adding 100 μl of 650 nm stop solution to the plate and mixed for 1 min at room temperature under gentle agitation. The plate is recorded by reading OD at 650 nm in a plate reader within 20 min after terminating the reaction.

FAP = FAP (UniProt Q12884 26-760, limits assumed); experiment: binding kinetics, method not stated (FIG. 42A)
human FAP on cells = target: T2, human FAP on cells (human, UniProt Q12884 1-760); experiment: flow cytometry on U87-MG glioblastoma cells (FIG. 58B)
T2 construct: whole, on cells; The cell line is named under assay; also called HT1080 human FAP cells; HT1080-hFAP cells
Description: As disclosed herein, the binding of constructs to cellular targets was assessed using flow cytometry. Stock of 2.5× serial dilution of minibodies were created starting from a concentration of 100 nM in […] FACS buffer (PBS 2% FBS). Cells were added to a Corning V-bottom polypropylene cell culture plate at 200,000 cells/well. The cells were centrifuged at 100 rpm for 3 minutes and the supernatant discarded. The minibody dilution series were transferred to the plate containing cell pellets and incubated for 1 hr at 4° C. The plate was then washed 3 times with FACS buffer at 200 µl/well, discarding supernatant after each wash by centrifugation at 1000 rpm. 50 µl/well of detection antibody R&D AlexaFluor-647 Goat anti Human (H+L) was added at a 1:100 dilution in FACS buffer and incubated at 4° C. 1 hr. The plate was washed 3 times with FACS buffer at 200 µl/well, discarding supernatant after each wash by centrifuging at 1000 rpm. Cells were then fixed by adding 100 µl of 1% paraformaldehyde in PBS and incubating at room temperature for 15 minutes. 100 µl of PBS were added to each well and the plate was analyzed by flow cytometry using the allophycocyanin fluorescence setting.

[2] = target: T1, purified human FAP antigen; experiment: ELISA, plate coated with purified human FAP antigen (FIG. 56D-56E)
Description: as §1, §2

[3] = target: T1, purified human FAP antigen; experiment: ELISA, plate coated with purified human FAP antigen (FIG. 91F)
Description: as §1

[4] = target: T1, purified human FAP antigen; experiment: ELISA, plate coated with purified human FAP antigen (FIG. 91A)
Description: as §1

B1: IAB16M1-12 (other)
chain: DIVMTQSPDSLAVSLGERATINCKSSQSLLYSRNQKNYLAWYQQKPGQPPKLLIFWASTRESGVPDRFSGSGFGTDFTLTISSLQAEDVAVYYCQQYFSYPLTFGQGTKVEIKGSTSGGGSGGGSGGGGSSQVQLVQSGAEVKKPGASVKVSCKTSRYTFTEYTIHWVRQAPGQRLEWIGGINPNNGIPNYNQKFKGRVTITVDTSASTAYMELSSLRSEDTAVYYCARRRIAYGYDEGHAMDYWGQGTLVTVSSEPKSSDKTHTCPPCPPCGGGSSGGGSGGQPREPQVYTLPPSREEMTKNQVSLTCLVKGFYPSDIAVEWESNGQPENNYKTTPPVLDSDGSFFLYSKLTVDKSRWQQGNVFSCSVMHEALHNHYTQKSLSLSPG
notes: also called Sibrotuzumab minibody; the control
Kd [1]: ~0.1 nM | Kd (FAP): 3.34 nM | koff (FAP): 0.00257 s⁻¹ | kon (FAP): 769000 M⁻¹ s⁻¹ | Kd (human FAP on cells): ~0.1 nM

B2: IAB16C1-20 (other)
chain: DIVMTQSPDSLAVSLGERATINCKSSQSLLYSRNQKNYLAWYQQKPGQPPKLLIFWASTRESGVPDRFSGSGFGTDFTLTISSLQAEDVAVYYCQQYFSYPLTFGQGTKVEIKSGGGGQVQLVQSGAEVKKPGASVKVSCKTSRYTFTEYTIHWVRQAPGQRLEWIGGINPNNGIPNYNQKFKGRVTITVDTSASTAYMELSSLRSEDTAVYYCARRRIAYGYDEGHAMDYWGQGTLVTVSSGGCPPCPPC
Kd [2]: ~1 nM

B3: IAB16C1-38 (other)
chain: DIVMTQSPDSLAVSLGERATINCKSSQSLLYSRNQKNYLAWYQQKPGQPPKLLIFWASTRESGVPDRFSGSGSGTDFTLTISSLQAEDFAVYYCQQYYSYPLTFGQGTKVEIKSGGGGQVQLVQSGAEVKKPGASVKVSCKASGYTFTEYTIHWVRQAPGQRLEWIGGINPNNGIPNYNQKFKGRVTITVDTSASTAYMELSSLRSEDTAVYYCARRRIAYGYDEGHAMDYWGQGTLVTVSSGGCPPCPPC
Kd [2]: ~1 nM

B4: IAB16M2-50 (other)
chain: DVQLVESGGGLVKPGGSLRLSCTVSGFTFSSYTMSWVRQAPGKGLEWVSTISSGGSYTYYADSVKGRFTISRDNAKNSLYLQMNSLRAEDTAVYYCTRDQVGYAMDYWGQGTLVTVSSGSTSGGGSGGGSGGGGSSDIQMTQSPSSLSASVGDRVTITCKASQDVGIAVAWYQQKPGKAPKLLIYWASTRHTGVPSRFSGSGSGTDFTFTISSLQPEDIATYYCQQYSRYPYTFGQGTKLEIKEPKSSDKTHTCPPCPPCGGGSSGGGSGGQPREPQVYTLPPSREEMTKNQVSLTCLVKGFYPSDIAVEWESNGQPENNYKTTPPVLDSDGSFFLYSKLTVDKSRWQQGNVFSCSVMHEALHNHYTQKSLSLSPG
Kd [3]: ~10 nM

B5: IAB16M1-54 (other)
chain: DIQMTQSPSSLSASVGDRVTITCKASQNVGTYVAWFQQKPGKAPKSLIYSASNRYSGVPSRFSGSGSGTDFTLTISSLQPEDFATYYCQQYNTYPYTFGQGTKLEIKGSTSGGGSGGGSGGGGSSQVQLVQSGAEVKKPGASVKVSCKASGYTFTSYVMHWVRQAPGQGLEWMGYINPHNDGTKYAQKFQGRVTMTRDTSTSTVYMELSSLRSEDTAVYYCARWGIYYGYGAWFAYWGQGTLVTVSSEPKSSDKTHTCPPCPPCGGGSSGGGSGGQPREPQVYTLPPSREEMTKNQVSLTCLVKGFYPSDIAVEWESNGQPENNYKTTPPVLDSDGSFFLYSKLTVDKSRWQQGNVFSCSVMHEALHNHYTQKSLSLSPG
Kd [4]: ~1 nM

B6: 9A2 (other)
chain 1: EVQLQQSGPELVKPGASVKMSCKASGYTFTSYVMHWLKQKPGQGLEWIGYINPHNDGTKYNEKFKGKATLTSDKSSSTAYMELSSLTSEDSAVYYCARWGIYYGYGAWFAYWGQGTLVTVSA
chain 2: DIVMTQSQKFMSTSVGDRVSVTCKASQNVGTYVAWYQQKPGQSPKALIYSASNRYSGVPDRFTGSGSGTDFTLTISNVQSEDLAEYFCQQYNTYPYTFGGGTKLEIK
notes: also called murine 9A2 construct
Kd [4]: ~1 nM

B7: IAB16M1-49 (other)
chain: DIQMTQSPSSLSASVGDRVTITCKASQDVGIAVAWYQQKPGKAPKLLIYWASTRHTGVPSRFSGSGSGTDFTFTISSLQPEDIATYYCQQYSRYPYTFGQGTKLEIKGSTSGGGSGGGSGGGGSSDVQLVESGGGLVKPGGSLRLSCTVSGFTFSSYTMSWVRQAPGKGLEWVSTISSGGSYTYYADSVKGRFTISRDNAKNSLYLQMNSLRAEDTAVYYCTRDQVGYAMDYWGQGTLVTVSSEPKSSDKTHTCPPCPPCGGGSSGGGSGGQPREPQVYTLPPSREEMTKNQVSLTCLVKGFYPSDIAVEWESNGQPENNYKTTPPVLDSDGSFFLYSKLTVDKSRWQQGNVFSCSVMHEALHNHYTQKSLSLSPG
Kd [3]: ~1 nM

B8: IAB16C3-21 (other)
chain: DIVMTQSPDSLAVSLGERATINCKSSQSLLYSRNQKNYLAWYQQKPGQPPKLLIFWASTRESGVPDRFSGSGFGTDFTLTISSLQAEDVAVYYCQQYFSYPLTFGQGTKVEIKGGGSGGGGQVQLVQSGAEVKKPGASVKVSCKTSRYTFTEYTIHWVRQAPGQRLEWIGGINPNNGIPNYNQKFKGRVTITVDTSASTAYMELSSLRSEDTAVYYCARRRIAYGYDEGHAMDYWGQGTLVTVSSGGCPPCPPC
Kd [2]: ~1 nM

B9: IAB16M2-55 (other)
chain: QVQLVQSGAEVKKPGASVKVSCKASGYTFTSYVMHWVRQAPGQGLEWMGYINPHNDGTKYAQKFQGRVTMTRDTSTSTVYMELSSLRSEDTAVYYCARWGIYYGYGAWFAYWGQGTLVTVSSGSTSGGGSGGGSGGGGSSDIQMTQSPSSLSASVGDRVTITCKASQNVGTYVAWFQQKPGKAPKSLIYSASNRYSGVPSRFSGSGSGTDFTLTISSLQPEDFATYYCQQYNTYPYTFGQGTKLEIKEPKSSDKTHTCPPCPPCGGGSSGGGSGGQPREPQVYTLPPSREEMTKNQVSLTCLVKGFYPSDIAVEWESNGQPENNYKTTPPVLDSDGSFFLYSKLTVDKSRWQQGNVFSCSVMHEALHNHYTQKSLSLSPG
Kd [4]: ~1 nM

B10: IAB16M2-29 (other)
chain: QVQLVQSGAEVKKPGASVKVSCKASGYTFTEYTIHWVRQAPGQRLEWIGGINPNNGIPNYNQKFKGRVTITVDTSASTAYMELSSLRSEDTAVYYCARRRIAYGYDEGHAMDYWGQGTLVTVSSGSTSGGGSGGGSGGGGSSDIVMTQSPDSLAVSLGERATINCKSSQSLLYSRNQKNYLAWYQQKPGQPPKLLIFWASTRESGVPDRFSGSGSGTDFTLTISSLQAEDFAVYYCQQYFSYPLTFGQGTKVEIKEPKSSDKTHTCPPCPPCGGGSSGGGSGGQPREPQVYTLPPSREEMTKNQVSLTCLVKGFYPSDIAVEWESNGQPENNYKTTPPVLDSDGSFFLYSKLTVDKSRWQQGNVFSCSVMHEALHNHYTQKSLSLSPG
Kd [2]: ~1 nM

B11: IAB16M2-9 (other)
chain: EVQLLESGGGLVQPGGSLRLSCAASGFTFSSYAMSWVRQAPGKGLEWVSAIIGSGASTYYADSVKGRFTISRDNSKNTLYLQMNSLRAEDTAVYYCAKGWFGGFNYWGQGTLVTVSSGSTSGGGSGGGSGGGGSSEIVLTQSPGTLSLSPGERATLSCRASQSVTSSYLAWYQQKPGQAPRLLINVGSRRATGIPDRFSGSGSGTDFTLTISRLEPEDFAVYYCQQGIMLPPTFGQGTKVEIKEPKSSDKTHTCPPCPPCGGGSSGGGSGGQPREPQVYTLPPSREEMTKNQVSLTCLVKGFYPSDIAVEWESNGQPENNYKTTPPVLDSDGSFFLYSKLTVDKSRWQQGNVFSCSVMHEALHNHYTQKSLSLSPG
Kd [1]: ~0.1 nM | Kd (human FAP on cells): ~0.1 nM
